Test results published in the DeepSol protein solubility set.

Test: soluble on expression in E. coli; label from the status in PepcDB or PDB records
For “MIGGRDDYPESGFSLPFEPGPRRMQIKRGIRILGIDDSPFSRGDRESNLVGVLMRMDGYVEMMEKEKIQVDGDDVNRAIENLFLYTGRVARIIMMSGISFAGFNICDIDALYQRIRVPVISVFEQGGSVERMIAAIEKHLDDPEKVRILRSLKPVEIRNNGYIIMANLSGIDAQSAQEIITRNTIRGKFPEAIRLADLVGKILGR”, the “soluble on expression in E. coli” value was “not soluble”. For “MNRRRKLLIPLLFCGAMLTACDDKSAENAAAMTPEVGVVTLSPGSVNVLSELPGRTVPYEVAEIRPQVGGIIIKRNFIEGDKVNQGDSLYQIDPAPLQAELNSAKGSLAKALSTASNARITFNRQASLLKTNYVSRQDYDTARTQLNEAEANVTVAKAAVEQATINLQYANVTSPITGVSGKSSVTVGALVTANQADSLVTVQRLDPIYVDLTQSVQDFLRMKEEVASGQIKQVQGSTPVQLNLENGKRYSQTGTLKFSDPTVDETTGSVTLRAIFPNPNGDLLPGMYVTALVDEGSRQNVLLVPQEGVTHNAQGKATALILDKDDVVQLREIEASKAIGDQWVVTSGLQAGDRVIVSGLQRIRPGIKARAISSSQENASTESKQ”, the “soluble on expression in E. coli” value was “not soluble”. For “MLIRSETPADQRAIFDVTQAAFRGHPHSEQTEAYIVQALRAAGALTLSLVAELDARVVGHAAFSPVQISDGSPSWFGLGPVSVDPAHQGRGIGTALIEHGLARLQARGAAGCVLVGEPAYYGRFGFRPEPGLVLPDMPPTHFLALTFGAPARGTVTYHPGFAARDA”, the “soluble on expression in E. coli” value was “not soluble”. With “MNPERQETISPKNVPFQPVPTPNQQSLQSRMLESNQAVPDAFQKVAAWNHYNAVATPPIGVPQTARPPSNQSPHPNPPGYPYQSHQQQFHPLAIAFQQPFGLPQQVIYPPPPPGFTPHRVQVSPVGLLGPPGFFPQFAGSTTSQGNPSEVSVRTKSAEGTTGPIAPSITTKPTSTIQVAPPRDPVAPTTSSSGITKKPENGEFSLVKTISGHTKSVSVIKFSYCGKYLGTGSADKQIKVWNTVDMTYLQTLASHQLGINDFSWSSNSQFIASASDDTTVKIFDVISGACLRTMRGHTNYVFCCSFNPQSSLIASAGFDETVRVWDFKTGLCVKCIPAHSDPITSISYNHDGNTMATSSYDGCIRVWDAASGSCLKTLVDTDHAPVTFVCFSPNGKYLLSAQLDSSLKLWDPKKAKPLKYYNGHKNKKYCLFANMSVPLGKHIISGSEDGRILVWSIQTKQIVQILEGHTTPVLATDSHPTLNIIASGGLEPDNVIRIWRRN” the “soluble on expression in E. coli” value was “not soluble”. For “MFVELNNLLNTTPDRAEQGKLTLLCDAKTDGSFLVHHFLSFYLKANCKVCFVALIQSFSHYSIVGQKLGVSLTMARERGQLVFLEGLKSAVDVVFQAQKEPHPLQFLREANAGNLKPLFEFVREALKPVDSGEARWTYPVLLVDDLSVLLSLGMGAVAVLDFIHYCRATVCWELKGNMVVLVHDSGDAEDEENDILLNGLSHQSHLILRAEGLATGFCRDVHGQLRILWRRPSQPAVHRDQSFTYQYKIQDKSVSFFCQRNVSCCSVT”, the “soluble on expression in E. coli” value was “soluble”. With “MPIRFLHTADLHLDSPLRTFGDLARERRRDFLKTFDRIVNLAIKREVDCILIAGDLFDSTSVGAETVGRVQDAFSRLAGRGVQVVLIPGTHDNIISAESVYSRYQFTGVHILREPAVDEPLRLDIRGEAVFFYGFAYRSDRSREALESMRRRSGDGIHVGLLHGSLKGNPEWEMRKKDIPFSVADLVALDLDYIALGHYHDAACLEEGGRVIACYPGSPEGKKFGENGPRYALIVEVAPGNASVERVEVQTRIIREFNVDASLFAEPAALEAELARLGTSDTVGRIRLCGTVEEPLDTANLSGRVKGNFAWLELVDETDLYNSGHVKRMEREDSIRGLFIRKIHERYDAAGSDAERELCRDALRLVMGRFSRGGGN” the “soluble on expression in E. coli” value was “not soluble”. With “MEKAPLLLETVEQAVRILQESPFVAIWNYKVLSVQAGAVALALPAQPQFYRPGGIIQGGCLMTLADTAFWLAAMTELGIDAPIVTLEMKTHFLRAAQADVYCRAEVMKSGRRVTYGTATITDAAGQTLSHHTLTYLAA” the “soluble on expression in E. coli” value was “not soluble”. With “MSATAKHDSNASPNSDSEDGHHHNNKKECAIEYLKARLNSASAVACGYLQAFVSKTQDFAKVCFLELQNPVVLVNLLLHSSVVCYLCNGYANHNARFLKGKPNSTVLATTAGALGLLTLDGIISKKYYSRYDKK” the “soluble on expression in E. coli” value was “soluble”. With “MGKKKNKKTEVQQPDPMRKNWIMENMDSGVIYLLESWLKAKSQETGKEISDIFANAVEFNIVLKDWGKEKLEETNTEYQNQQRKLRKTYIEYYDREMK” the “soluble on expression in E. coli” value was “soluble”. In the case of “MKENIEKLFQAIAQKNPIHSKYLKKIEFSQEDEEEFDKLISYYIQDGISIKEQCDCYLLILNDTLEETKFFIENGAYRYSSFDEVKDKVYFNESYMKQYMIGLALSSFVWIAHIKVRKYFSQYLQNFTPKTTYFEIGPGHGEYFARAVKSGKFSAFYGLDISPTSCELTQKMVKQQVGGLITKCDFLCQDFFTYDFDKKADLIVIGEVLEHVEKPLEFLKRSKELLSDGGEIFATIPINAPAIDHIYLFSHPDEVKDLIEKSGLKFKAYECFMANDYSLEKALKFKNAITMAVVLNALEHHHHHH”, the “soluble on expression in E. coli” value is reported as “soluble”. With “AKTAAALHILVKEEKLALDLLEQIKNGADFGKLAKKHSICPSGKRGGDLGEFRQGQMVPAFDKVVFSCPVLEPTGPLHTQFGYHIIKVLYRN” the “soluble on expression in E. coli” value was “soluble”. With “TRGLNFSVEFTGGTVMEVQYQQGADVNKMRERLDTLKIGDVQVQALGTNKHIMIRLPNKEGVTSAQLSNQVMDLLKKDSPDVTLRQVEFIGPQVGEE” the “soluble on expression in E. coli” value was “not soluble”. In the case of “MGHHHHHHSHMFTMLCINGTTPRPLPVPSPFGCMIFFFFKNPWKQCLLQGWLGARPIHLLGYLPLSLLWCPFPLPCARCSVVYISSPRHGAHAPRDMILSLVLAHGALYKELGGRGRKWEPS”, the “soluble on expression in E. coli” value is reported as “not soluble”. In the case of “MTIPLWWQNGVIYQIYPKSFQDTTGSGTGDLRGVTQRLDYLQRLGVDAIWLTPFYISPQVDNGYDVANYTAIDPTYGTLDDFDELVAQAKARGIRIILDMVFNHTSTQHAWFREALNKESPYRQFYIWRDGTPDVCPNNWQSKFGGSAWRWHSQSEQYYLHLFAPEQADLNWENPAVRAELKKVCEFWADRGVDGLRLDVVNLIAKDQNFPDDPTGDGRRFYTDGPRAHTFLREMNRDVFTPRNLMTVGEMSSTTLENCQQYAALSGDELSMTFNFHHLKVDYPNGEKWTLAKPDYVALKALFRHWQQGMHNVAWNALFWCNHDQPRIVSRFGDEGEYRVPAAKMLAMALHGMQGTPYIYQGEEIGMTNPHFTRITDYRDVESHNMFAALRAAGRDPDELLAILASKSRDNSRTPMQWDNGKNAGFTQGEPWISLCDNYTEVNVEAALRDENSVFYTYQKLIALRKTQPVLIWGDYQDLLPDSPSVWCYRRQWQGQILLVVANLSNQCQEWHPPHIKGQWQALLHNYGEVASQPAAMTLRPFEAIWWLQR”, the “soluble on expression in E. coli” value is reported as “not soluble”. In the case of “MGSDKIHHHHHHMGNYLVLQSDFGLSDGAVSAMYGVAYTVSDDIRVENLTHDIPPYDIWVASYRLYQTVKYWPKGTVFVSVVDPGVGSDRRSIACLTYSGHYIITPDNGSLSHIKHYEGIKKVIEIDEVKSRLPHSEESHTFHGRDVYAYNGARLAANKIAFERLGQAINVDSIEALEIREATKNEDSVTGSIDILDIRFGSLWTNIPLAFLKSLEIVHGNNLVVTIYHQDKKVYQNIIKFARSFADVNVGEPLVYVNSLVNIGVAVNQDSFSDLYHIGTGNDWTIHLSKAPSI”, the “soluble on expression in E. coli” value is reported as “not soluble”. In the case of “METVQLRNPPRRQLKKLDEDSLTKQPEEVFDVLEKLGEGSYGSVYKAIHKETGQIVAIKQVPVESDLQEIIKEISIMQQCDSPHVVKYYGSYFKNTDLWIVMEYCGAGSVSDIIRLRNKTLTEDEIATILQSTLKGLEYLHFMRKIHRDIKAGNILLNTEGHAKLADFGVAGQLTDTMAKRNTVIGTPFWMAPEVIQEIGYNCVADIWSLGITAIEMAEGKPPYADIHPMRAIFMIPTNPPPTFRKPELWSDNFTDFVKQCLVKSPEQRATATQLLQHPFVRSAKGVSILRDLINEAMDVKLKRQESQQREMDQDDEENSEEDEMDSGTMVRAVGDEMGTVRVASTMTDGANTMIEHDDTLPSQLGTMVINAEDEEEEG”, the “soluble on expression in E. coli” value is reported as “soluble”. For “DNYFRIHVKKLPEENKDAQGLWTWDDVEKPSENWPNGALSFKDAKKDDYGYYLDVKLKGEQAKKISFLINNTAGKNLTGDKSVEKLVPKMNEAWLDQDYKVFSYEPQPAGTVRVNYYRTDGNYDKKSLWYWGDVKNPSSAQWPDGTDFTATGKYGRYIDIPLNEAAREFGFLLLDESKGDVKIRKENYKFTDLKNHSQIFLKDDDESIYTNPYYVHD”, the “soluble on expression in E. coli” value was “soluble”.
